Assay results published in paper PMC12749725 (Nature Communications, 2025).
Several values for one entry are separate records, joined by “and”; a condition that tells them apart may be missing. Identical values can stand only once.

What was measured:
SEC [1] = target: the molecule itself; assay: SEC
SEC-MALS = target: the molecule itself; assay: SEC-MALS
[2] = target: T1, BAI3 extracellular domain (ECD) (human, UniProt O60242 25-880); assay: ITC
T1 sequence (looked up): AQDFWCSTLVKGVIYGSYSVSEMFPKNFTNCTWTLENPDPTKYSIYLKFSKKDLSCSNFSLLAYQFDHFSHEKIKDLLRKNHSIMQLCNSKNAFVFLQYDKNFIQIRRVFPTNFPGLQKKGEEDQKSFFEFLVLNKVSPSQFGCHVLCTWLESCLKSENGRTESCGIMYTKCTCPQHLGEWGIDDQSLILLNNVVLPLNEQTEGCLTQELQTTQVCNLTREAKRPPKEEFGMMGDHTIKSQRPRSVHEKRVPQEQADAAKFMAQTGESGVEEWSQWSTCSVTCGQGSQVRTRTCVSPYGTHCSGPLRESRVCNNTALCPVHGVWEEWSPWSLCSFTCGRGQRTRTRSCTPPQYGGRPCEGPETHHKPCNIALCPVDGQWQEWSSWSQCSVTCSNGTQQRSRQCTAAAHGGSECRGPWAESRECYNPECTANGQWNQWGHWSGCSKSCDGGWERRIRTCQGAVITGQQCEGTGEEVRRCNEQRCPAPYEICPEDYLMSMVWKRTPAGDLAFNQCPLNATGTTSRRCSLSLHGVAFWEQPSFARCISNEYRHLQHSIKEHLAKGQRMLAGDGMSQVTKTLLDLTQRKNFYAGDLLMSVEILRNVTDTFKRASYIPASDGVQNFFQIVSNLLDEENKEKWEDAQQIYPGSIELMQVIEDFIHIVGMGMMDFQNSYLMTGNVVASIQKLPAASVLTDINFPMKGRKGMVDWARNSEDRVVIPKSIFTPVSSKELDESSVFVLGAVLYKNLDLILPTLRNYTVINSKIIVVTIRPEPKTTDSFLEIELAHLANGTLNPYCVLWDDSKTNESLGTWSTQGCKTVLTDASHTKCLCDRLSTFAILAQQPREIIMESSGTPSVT

[3] = target: T2, BAI3_eCUB^253 (C-terminal extended CUB domain of BAI3, aa. 25-253) (human, UniProt O60242 25-253); assay: ITC
T2 sequence (looked up): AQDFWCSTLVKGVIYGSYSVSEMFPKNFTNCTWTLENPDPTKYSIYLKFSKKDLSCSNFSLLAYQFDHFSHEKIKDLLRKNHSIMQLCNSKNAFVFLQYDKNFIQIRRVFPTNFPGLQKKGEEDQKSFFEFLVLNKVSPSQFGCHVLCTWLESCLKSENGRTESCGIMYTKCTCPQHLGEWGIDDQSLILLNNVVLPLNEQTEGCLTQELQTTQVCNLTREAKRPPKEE

SEC [4] = target: the molecule itself; assay: SEC; remark: listed apart in the source

B1: full-length C1ql1, bacteria-expressed (without signal peptide) (natural protein, mouse, UniProt O88992 17-258, looked up)
chain: GPDGHYEMLGTCRMVCDPYPARGPGAGARSDGGDALSEQSGAPPPSTLVQGPQGKPGRTGKPGPPGPPGDRGPPGPVGPPGEKGEPGKPGPPGLPGSGGSGAISTATYTTVPRVAFYAGLKNPHEGYEVLKFDDVVTNLGNNYDAASGKFTCNIPGTYFFTYHVLMRGGDGTSMWADLCKNGQVRASAIAQDADQNYDYASNSVILHLDAGDEVFIKLDGGKAHGGNSNKYSTFSGFIIYSD
stoichiometry N (SEC [1]): 6 and 3

B2: C1ql1_gC1q (globular C1q domain of mouse C1ql1), wild type (domain or fragment)
chain: ATYTTVPRVAFYAGLKNPHEGYEVLKFDDVVTNLGNNYDAASGKFTCNIPGTYFFTYHVLMRGGDGTSMWADLCKNGQVRASAIAQDADQNYDYASNSVILHLDAGDEVFIKLDGGKAHGGNSNKYSTFSGFIIYSD
stoichiometry N (SEC-MALS): 6 and 3
Kd [2]: ~1100 nM
Kd [3]: ~150 nM
stoichiometry N [3]: 3 eCUB molecules per gC1q trimer

B3: C1ql1_gC1q D208N (domain or fragment, mouse)
chain: TTVPRVAFYAGLKNPHEGYEVLKFDDVVTNLGNNYDAASGKFTCNIPGTYFFTYHVLMRGGDGTSMWADLCKNGQVRASAIAQNADQNYDYASNSVILHLDAGDEVFIKLDGGKAHGGNSNKYSTFSGFIIYSD
binding result (SEC [4]): binds
fold weaker binding than wild type [3]: ~9 fold

B4: C1ql1_gC1q D210N (domain or fragment, mouse)
chain: TTVPRVAFYAGLKNPHEGYEVLKFDDVVTNLGNNYDAASGKFTCNIPGTYFFTYHVLMRGGDGTSMWADLCKNGQVRASAIAQDANQNYDYASNSVILHLDAGDEVFIKLDGGKAHGGNSNKYSTFSGFIIYSD
binding result [3]: binds

B5: C1ql1_gC1q D214N (domain or fragment, mouse)
chain: TTVPRVAFYAGLKNPHEGYEVLKFDDVVTNLGNNYDAASGKFTCNIPGTYFFTYHVLMRGGDGTSMWADLCKNGQVRASAIAQDADQNYNYASNSVILHLDAGDEVFIKLDGGKAHGGNSNKYSTFSGFIIYSD
binding result [3]: binds

B6: C1ql1_gC1q A209S (domain or fragment, mouse)
chain: TTVPRVAFYAGLKNPHEGYEVLKFDDVVTNLGNNYDAASGKFTCNIPGTYFFTYHVLMRGGDGTSMWADLCKNGQVRASAIAQDSDQNYDYASNSVILHLDAGDEVFIKLDGGKAHGGNSNKYSTFSGFIIYSD
binding result [3]: binds
